The target of assay [1] is T1, Siglec15-ECD-His (human, UniProt Q6ZMC9 20-263).
T1 construct: Human Siglec15 (Uniprot Q6ZMC9) extracellular domain with 7 His, expressed in Hek293F; also called Sigle15-ECD-His protein; Siglec15-His protein
T1 sequence: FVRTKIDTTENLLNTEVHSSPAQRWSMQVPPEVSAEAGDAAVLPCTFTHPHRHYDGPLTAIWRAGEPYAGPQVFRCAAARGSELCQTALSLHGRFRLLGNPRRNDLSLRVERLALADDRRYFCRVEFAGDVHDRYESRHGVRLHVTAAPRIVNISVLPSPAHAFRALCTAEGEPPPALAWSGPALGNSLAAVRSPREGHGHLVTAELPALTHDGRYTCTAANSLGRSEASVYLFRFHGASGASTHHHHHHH
The assay can be described thus: BLI (ForteBio), Siglec15-ECD-His on HIS1K sensor, antibody as analyte. As to the method:
In this experiment, a HIS1K biosensor was used to bind the ligand (Sigle15-ECD-His protein) followed by the analyte. Human Sigle15-ECD-His protein was diluted to 5 μg/ml and immobilized on the biosensor to a binding response threshold of 0.3 nm. After the 120s baseline step, the sensors were respectively immersed in the analytes of anti-Siglec15 antibodies 1-7F4-IgG1, 1-15D1-IgG1 and 1-10E5-IgG1 diluted in 2-fold gradient dilution with 0.02% PBST buffer, and the initial antibody concentration was 100 nM, 7 concentration gradients were set respectively. Human IgG1 (hIgG1) (B109801, Baiying Biotechnology Co., Ltd.) was used as a reference control, and 5G12-IgG1 was used as a positive control to conduct an affinity analysis experiment. The binding time of ligand and analyte was 120s, and the dissociation time was 300s. The raw data were imported into the analysis software, the zero concentration control was subtracted, and the reference channel was subtracted to eliminate the volume effect. The affinity data of the antigen and antibody were calculated by the analysis software regression according to the binding curve.
In general terms: BLI is a label-free optical method that tracks binding on a fibre tip over time.

Assay [2] has as its target T1, Siglec15-ECD-His. The assay can be described thus: ELISA, His-tagged human Siglec15 coated. As to the method: (§1) In order to evaluate the cross-species recognition properties of antibodies, the cross recognition of purified 1-15D1, 1-7F4, 14A7 and 1-10E5 monoclonal antibodies with human, cynomolgus monkey and mouse Siglec15 was tested. ELISA test was carried out by coating the microtiter plate with His-tagged human, cynomolgus monkey and mouse Siglec15 proteins and adding 1-15D1, 1-7F4, 14A7 and 1-10E5 antibodies at concentrations of 5000 ng/ml, 1666.7 ng/ml, 555.6 ng/ml, 185.2 ng/ml, 61.7 ng/ml, 20.6 ng/ml, 6.9 ng/ml, 2.3 ng/ml, 0.8 ng/ml, 0.25 ng/ml and 0.1 ng/ml respectively. […] The 14A7 and 1-10E5 antibodies could not only bind human and monkey Siglec15 proteins, but also bind mouse Siglec 15 proteins (FIG. 5). See Table 1 and FIG. 3-FIG. 5 for the EC₅₀ values of affinities for various Siglec15.

The target of assay [3] is His-tagged mouse Siglec15 protein (mouse). The assay can be described thus: ELISA, His-tagged mouse Siglec15 coated. As to the method:
as §1
(In an ELISA, binding on a coated surface is turned into a signal by an enzyme label.)

The target in assay [4] is T2, His-tagged cynomolgus monkey Siglec15 protein (cynomolgus monkey, UniProt A0A2K5UY47 20-262).
T2 construct: not shown: His tag
T2 sequence: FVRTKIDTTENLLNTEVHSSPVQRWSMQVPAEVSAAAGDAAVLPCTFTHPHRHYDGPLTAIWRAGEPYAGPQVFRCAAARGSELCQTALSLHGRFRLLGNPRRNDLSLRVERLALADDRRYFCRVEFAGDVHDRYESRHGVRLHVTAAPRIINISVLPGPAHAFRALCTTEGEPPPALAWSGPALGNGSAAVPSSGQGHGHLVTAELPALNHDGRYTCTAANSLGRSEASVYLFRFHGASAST
Nature of the assay: ELISA, His-tagged cynomolgus monkey Siglec15 coated. As for the experimental part:
as §1

A further assay addresses T3, Siglec15-ECD-Fc (human).
T3 construct: Human Siglec15 extracellular domain fused to human IgG1 Fc, expressed in Hek293F; also called Siglec15-ECD-Fc fusion protein
Nature of the assay: flow cytometry, single-point blocking by hybridoma supernatant of Siglec15-ECD-Fc (2 ug/ml) binding to LRRC4C-Hek293 cells. The text has this: When the hybridoma cells grew to a certain amount, the Siglec15-His protein was coated onto a 96-well microtiter plate, and the mouse anti-Siglec15 serum was used as a positive control, and the hybridoma supernatant was screened by ELISA to select positive clones. […] The experimental results were shown in FIG. 2, and the specific method was as follows. The inventors conducted subclonal screening of these 10 strains of cells by the limiting dilution method, and finally kept the obtained monoclonal positive cell strains separately, and the supernatant of hybridoma cells was collected for purification by ProteinG.
By using the Lipofectamine system, the human LRRC4C (amino acid sequence set forth in SEQ ID NO: 5) plasmid was transfected into Hek293 cells. After 48 hours, G418 (800 μg/mL) was added to screen for 10-14 days to obtain a cell line stably expressing LRRC4C. Cells were collected, washed once with PBS buffer, blocked with PBS containing 2% FBS for 1 h at room temperature. The hybridoma cell supernatant was added in 50 μl/well; then the diluted Siglec 15-ECD-Fc protein (2 ug/ml) was added in 50 μl/well; mouse IgG was used as a negative control. The cells were incubated at 4° C. for 50 min, then washed three times with PBS buffer containing 0.2% FBS, then diluted with Alexa Fluor 488-labeled goat anti-human IgG in PBS containing 2% FBS, and incubated at 4° C. in the dark for 50 min, and washed three times with PBS buffer containing 0.2% FBS; finally, the cells were resuspended in 200 μL PBS and analyzed by flow cytometry. The average fluorescence reading of 10,000 cells for each sample was recorded, wherein the FITC fluorescence intensity was taken as the abscissa and the cell number as the ordinate, and the voltage parameters were adjusted so that the blank control was at the origin of the coordinate axis. The percentage result of hybridoma cell supernatant for blocking the binding of Siglec15-ECD-Fc protein to LRRC4C was calculated.
In general terms: In flow cytometry, cells or beads pass a laser one at a time.

B1: 5G12-IgG1 control antibody (antibody, V domains shown)
VH: QVQLQQPGAELVKPGASVKMSCKASGYTFTSYWITWVIQRPGQGLEWIGDIYCGSDTMHYNEKFKNKATLTVDTSSSTAYMQLSSLTSEDSAVYYCARWWDYGSSYDYFDYWGQGTTLTVSS
VL: DIKMTQSPSSMYASLGERVTITCKASQDINSYLSWFQQKPGKSPKTLIYRANRLVDGVPSRFSGSGSGQDYSLTISSLEYEDMGIYYCLQYDEFPYTFGGGTKLEIKR
As usually defined, the Kd is the constant that tells how readily two partners part at equilibrium. As a reminder, the koff is the first-order rate constant of dissociation. Broadly, the kon is the rate constant with which the complex forms. For B1, in the assay with Siglec15-ECD-His [1], binding was put at a Kd of 0.261 nM, the dissociation rate constant (koff) came to 0.000178 s⁻¹ and the kon stood at 683000 M⁻¹ s⁻¹.

B2: 1-10E5 monoclonal antibody (antibody, V domains shown)
VH: DVKLVESGGGLVKPGGSLKLSCVVSGLTFSRYTMSWVRQTPEKRLEWVATISSGGNSTYYPDSVKGRFTISRDDAKDTLYLQMSSLKSEDTAMYYCTNYGYFFDYWGQGTTLTVSS
VL: DIQMTQSPASLSASVGETVTITCRASENIYSFLAWYQQKQGKSPQLLVYNAKTLAEGVPSRFSGSGSGTQFSLKINSLQPEDFGSYYCQHHYDRPLTFGAGTKLELK
As usually defined, the EC50 is the midpoint of the concentration-response curve. Turning to B2, the EC50 stood at 7.21 ng/mL with Siglec15-ECD-His [2], 9.61 ng/mL in assay [3] and 9.49 ng/mL in assay [4]. In the assay with Siglec15-ECD-Fc, the binding result was “binds”.

B3: 1-10E5-IgG1 human-mouse chimeric anti-Siglec15 antibody (antibody, V domains shown)
VH: DVKLVESGGGLVKPGGSLKLSCVVSGLTFSRYTMSWVRQTPEKRLEWVATISSGGNSTYYPDSVKGRFTISRDDAKDTLYLQMSSLKSEDTAMYYCTNYGYFFDYWGQGTTLTVSS
VL: DIQMTQSPASLSASVGETVTITCRASENIYSFLAWYQQKQGKSPQLLVYNAKTLAEGVPSRFSGSGSGTQFSLKINSLQPEDFGSYYCQHHYDRPLTFGAGTKLELK
In the assay with Siglec15-ECD-His [1], B3 registered a Kd of less than 0.001 nM, a koff of less than 1e-07 s⁻¹ and an on-rate (kon) of 1.04e+06 M⁻¹ s⁻¹.

B4: 1-7F4 monoclonal antibody (antibody, V domains shown)
VH: EVQLQQSGPELVKPGASVKMSCKASGYTFTTYVMHWVKQKPGQGLEWIGYINPYNDKTKYNEKFKGKATLTSDKSSSTAYMEVSRLTSEDSAVYYCGSGYDAMDYWGQGTSVTVSS
VL: DIQMTQSPASLSVSVGETVTITCRASENIYSHLAWYQQKQGKSPQLLIYSATNLADGVPSRFNGSGSGTQYSLKINSLQSEDFGSYYCQHFWGTPWTFGGGTKLEIK
B4: the EC50 with Siglec15-ECD-His [2] is 10 ng/mL; in assay [4] it was 14.8 ng/mL. In addition, the binding result in the assay with Siglec15-ECD-Fc is “binds”.

B5: 1-7F4-IgG1 human-mouse chimeric anti-Siglec15 antibody (antibody, V domains shown)
VH: EVQLQQSGPELVKPGASVKMSCKASGYTFTTYVMHWVKQKPGQGLEWIGYINPYNDKTKYNEKFKGKATLTSDKSSSTAYMEVSRLTSEDSAVYYCGSGYDAMDYWGQGTSVTVSS
VL: DIQMTQSPASLSVSVGETVTITCRASENIYSHLAWYQQKQGKSPQLLIYSATNLADGVPSRFNGSGSGTQYSLKINSLQSEDFGSYYCQHFWGTPWTFGGGTKLEIK
In the assay with Siglec15-ECD-His [1], B5 showed a Kd of 0.06 nM, a koff of 3.42e-05 s⁻¹ and a kon of 570000 M⁻¹ s⁻¹.

B6: 1-15D1-IgG1 human-mouse chimeric anti-Siglec15 antibody (antibody, V domains shown)
VH: EVQLQQSGPELVKPGASVKMSCKASGYTFTTYVMHWVKQKPGQGLEWIGYINPYNDNTKYNEKFKGKATLTSDKSSSTAYMELSSLTSEDSAVYYCGSGYDAMDYWGQGTSVTVSS
VL: DIQMAQSPASLSVSVGETVTITCRTSENIYSHLAWYQQKQGKSPQLLVYSATNLADGVPSRFNGSGSGTQYSLKINSLQSEDFGSYYCQHFWGTPWTFGGGTKLEIK
In the assay with Siglec15-ECD-His [1], B6 came in with a Kd of less than 0.001 nM, a koff of less than 1e-07 s⁻¹ and an on-rate constant (kon) of 436000 M⁻¹ s⁻¹.

B7: 1-15D1 monoclonal antibody (antibody, V domains shown)
VH: EVQLQQSGPELVKPGASVKMSCKASGYTFTTYVMHWVKQKPGQGLEWIGYINPYNDNTKYNEKFKGKATLTSDKSSSTAYMELSSLTSEDSAVYYCGSGYDAMDYWGQGTSVTVSS
VL: DIQMAQSPASLSVSVGETVTITCRTSENIYSHLAWYQQKQGKSPQLLVYSATNLADGVPSRFNGSGSGTQYSLKINSLQSEDFGSYYCQHFWGTPWTFGGGTKLEIK
As for B7, the EC50 with Siglec15-ECD-His [2] was 4.98 ng/mL; in assay [4], 9.07 ng/mL. Besides, in the assay with Siglec15-ECD-Fc, the binding result was “binds”.

B8: 14A7 monoclonal antibody (antibody, V domains shown)
VH: DVQLQESGPGLVKPSQSLSLTCTVTGYSITSDFAWNWIRQFPGNKLEWMGYIRFSGSTTYKPTLKSRISITRDTSKNQFFLQLNSVTTEDSATYYCAREDYDGLFDYWGQGTTLTVTS
VL: DVLMTQTPLSLPVSLGDHASISCRSSQTILHSNGNTYLDWYLQKPGQSPKLLIYKVSNRFSGVPDRFSGSGSGTDFTLKISRVEAEDLGVYYCFQGSHVPYTFGGGTKLEIK
Regarding B8, the EC50 was found to be 8.97 ng/mL in the assay with Siglec15-ECD-His [2], 9.99 ng/mL in assay [3] and 8.51 ng/mL in assay [4]. The binding result with Siglec15-ECD-Fc is on record as “binds”.
